Assay results: the Human Domainome abundance scans (Beltran et al. 2025)

B1: Zinc finger MYM-type protein 3, residues 405 to 444; numbered along this chain, Q14202 (parent)
chain: DATRCSICQKTGEVLHEVSNGSVVHRLCSDSCFSKFRANK
B2: Kinesin-like protein KIF16B, residues 1213 to 1273; numbered along this chain, Q96L93 (parent)
chain: ETWTVFRRYSRFREMHKTLKLKYAELAALEFPPKKLFGNKDERVIAERRSHLEKYLRDFFS

Variants of: B1
Experiment: abundance fitness (aPCA) (normalised: wild type 0, dead -1); higher = more abundant; growth selection in yeast, the domain comes from the species named
Conditions: Homo sapiens

Abundance fitness of substitutions, site by site:
Q9: L -0.22
S19: T -0.009
S29: W -0.669, F -1.05
N39: P 0.043
L15: F -0.092, Y -0.142
C8: G -0.86, Q -0.993
V14: N -0.087
D1: F -0.219
S6: L -0.312
H16: K -0.158
F36: E 0.029
N20: A -0.068, G -0.21
C5: G -0.914
S34: Y -1.01
F33: A 0.134, G -0.044
A38: F -0.259
K40: V 0.112, S 0.119, A -0.047

Variants of: B2
Experiment: as above
Conditions: Homo sapiens

Abundance fitness, by site and new letter:
T2: M -0.538, P 0.047, G -0.721, Q -0.541, W -0.146, Y -0.352, A -0.687, L 0.274, N -0.286, K -0.409, S -0.523, C -0.5, E -0.18, V -0.165, I 0.085
W3: Y -0.424, N -0.024, A -0.66, L -0.45, V -0.521, T -0.432, I -0.655, D -0.022, C -0.761, R -0.232, Q -0.771, S -0.152, G 0.039, E -0.088, M -0.274, F 0.086, K -0.051
Y9: A -0.119, W 0.076, Q -0.446, C 0.123, V 0.019, M 0.163, P 0.129, L 0.063, E -0.858, K -0.056, N 0.091, R -0.27, S 0.055, G 0.245, I 0.156, T -0.201
R8: Y 0.048, H -0.198, V 0.26, C 0.282, M 0.284, W 0.02, Q 0.057, G 0.097, D -0.271, T 0.005, I 0.37, A 0.334, P -0.092, L 0.317, K 0.295, S 0.12, N -0.31, E -0.494
T4: S 0.109, Y -0.139, C 0.079, F -0.124, N 0.308, V -0.319, G 0.085, A -0.087, R -0.256, Q 0.119, E 0.223, L -0.318, M -0.077, K -0.15, W 0.033, P -0.102, D 0.178, I -0.23, H -0.406
S10: A -0.095, E -0.758, D -0.224, C 0.208
R7: P -0.161, M -0.04, V -0.042, C 0.084, T -0.02, N -0.131, K 0.227, G 0.186, H 0.225, S 0.141, L -0.025, F 0.078, Q 0.164, A 0.022
V5: E -0.486, T 0.094, P -0.442, G 0.22, I -0.044, Q -0.093, K 0.318, W 0.086, L 0.035, R -0.041, S -0.023, A 0.161, D -0.156, M 0.125
F6: Q -0.402, L -0.242, E -0.161, G -0.168, N -0.451, M -0.443, H -0.541, S -0.215, R -0.601, K -0.442, A -0.241, Y -0.69, P -0.227, I -0.044, V -0.107, C -0.842, D -0.474, T -0.352
E1: D -0.001, K -0.26, M -0.343, W -0.421, V -0.846, L -0.75, N -0.153, G -0.62
